Results on five molecules are retold here after publication PMC5481773, “Structural insights into the function of ZRANB3 in replication stress response” (Nature Communications, 2017).

The assay is described as follows: NADH-coupled ATPase assay of ZRANB3 proteins. The settings on record: 150 nM ZRANB3, 5 mM ATP, 0.5 μM flap DNA, 24 °C, average rates; for ATP hydrolysis rate: A340 nm. It is filed as biochemical. The protocol: The NADH-coupled ATPase assay is based on a reaction in which the regeneration of hydrolysed ATP is coupled to the oxidation of NADH[59]. It was used as described, with minor modifications. ZRANB3 (150 nM) was added to a 150 μl reaction containing 25 mM Tris-Cl pH 7.5, 13 mM MgCl2, 1.8 mM DTT, 100 μg ml^−1 BSA, 3 mM phosphoenolpyruvate, 36 U ml^−1 pyruvate kinase, 20 U ml^−1 lactate dehydrogenase, 0.5 μM flap DNA, and 5 mM ATP, with 750 μM NADH added immediately before ZRANB3. Reactions were mixed for 1 min on a shaker at 23 °C and analysed by measuring A340 nm at 20 s intervals during 60 min, on a Spectramax 250 microplate spectrophotometer at 24 °C. Linear titration of freshly prepared NADH was performed to obtain a standard curve for units of absorbance mM^−1 NADH. ATPase rates were calculated from data collected between time points where product formation was linear with respect to time.

B1: K984A: ZRANB3 basic residues HNH mutant (protein, UniProt Q5FWF4 1-1079, looked up, variant K984A)
DNA annealing helicase and …: MPRVHNIKKSLTPHISCVTNESDNLLDFLPDRLRAKLLPFQKDGIIFALKRNGRCMVADEMGLGKTIQAIGITYFYKEEWPLLIVVPSSLRYPWTEEIEKWIPELSPEEINVIQNKTDVRRMSTSKVTVLGYGLLTADAKTLIDALNNQNFKVVIVDESHYMKSRNATRSRILLPIVQKARRAILLTGTPALGRPEELFMQIEALFPQKFGRWTDYAKRYCNAHIRYFGKRPQWDCRGASNLNELHQLLSDIMIRRLKTEVLTQLPPKVRQRIPFDLPSAAAKELNTSFEEWEKIMRTPNSGAMETVMGLITRMFKQTAIAKAGAVKDYIKMMLQNDSLKFLVFAHHLSMLQACTEAVIENKTRYIRIDGSVSSSERIHLVNQFQKDPDTRVAILSIQAAGQGLTFTAASHVVFAELYWDPGHIKQAEDRAHRIGQCSSVNIHYLIANGTLDTLMWGMLNRKAQVTGSTLNGRKEKIQAEEGDKEKWDFLQFAEAWTPNDSSEELRKEALFTHFEKEKQHDIRSFFVPQPKKRQLMTSCDESKRFREENTVVSSDPTKTAARDIIDYESDVEPETKRLKLAASEDHCSPSEETPSQSKQIRTPLVESVQEAKAQLTTPAFPVEGWQCSLCTYINNSELPYCEMCETPQGSAVMQIDSLNHIQDKNEKDDSQKDTSKKVQTISDCEKQALAQSEPGQLADSKEETPKIEKEDGLTSQPGNEQWKSSDTLPVYDTLMFCASRNTDRIHIYTKDGKQMSCNFIPLDIKLDLWEDLPASFQLKQYRSLILRFVREWSSLTAMKQRIIRKSGQLFCSPILALEEITKQQTKQNCTKRYITKEDVAVASMDKVKNVGGHVRLITKESRPRDPFTKKLLEDGACVPFLNPYTVQADLTVKPSTSKGYLQAVDNEGNPLCLRCQQPTCQTKQACKANSWDSRFCSLKCQEEFWIRSNNSYLRAKVFETEHGVCQLCNVNAQELFLRLRDAPASQRKNLLYATWTSKLPLEQLNEMIRNPGEGHFWQVDHIKPVYGGGGQCSLDNLQTLCTVCHKERTARQAKERSQVRRQSLASKHGSDITRFLVKK
Turning to B1, the ATP hydrolysis rate is 20.93 ± 2.01 µmol/L/min and the k was determined as 139.56 ± 13.45 min⁻¹.

B2: K988A: ZRANB3 basic residues HNH mutant (protein, UniProt Q5FWF4 1-1079, looked up, variant K988A)
DNA annealing helicase and …: MPRVHNIKKSLTPHISCVTNESDNLLDFLPDRLRAKLLPFQKDGIIFALKRNGRCMVADEMGLGKTIQAIGITYFYKEEWPLLIVVPSSLRYPWTEEIEKWIPELSPEEINVIQNKTDVRRMSTSKVTVLGYGLLTADAKTLIDALNNQNFKVVIVDESHYMKSRNATRSRILLPIVQKARRAILLTGTPALGRPEELFMQIEALFPQKFGRWTDYAKRYCNAHIRYFGKRPQWDCRGASNLNELHQLLSDIMIRRLKTEVLTQLPPKVRQRIPFDLPSAAAKELNTSFEEWEKIMRTPNSGAMETVMGLITRMFKQTAIAKAGAVKDYIKMMLQNDSLKFLVFAHHLSMLQACTEAVIENKTRYIRIDGSVSSSERIHLVNQFQKDPDTRVAILSIQAAGQGLTFTAASHVVFAELYWDPGHIKQAEDRAHRIGQCSSVNIHYLIANGTLDTLMWGMLNRKAQVTGSTLNGRKEKIQAEEGDKEKWDFLQFAEAWTPNDSSEELRKEALFTHFEKEKQHDIRSFFVPQPKKRQLMTSCDESKRFREENTVVSSDPTKTAARDIIDYESDVEPETKRLKLAASEDHCSPSEETPSQSKQIRTPLVESVQEAKAQLTTPAFPVEGWQCSLCTYINNSELPYCEMCETPQGSAVMQIDSLNHIQDKNEKDDSQKDTSKKVQTISDCEKQALAQSEPGQLADSKEETPKIEKEDGLTSQPGNEQWKSSDTLPVYDTLMFCASRNTDRIHIYTKDGKQMSCNFIPLDIKLDLWEDLPASFQLKQYRSLILRFVREWSSLTAMKQRIIRKSGQLFCSPILALEEITKQQTKQNCTKRYITKEDVAVASMDKVKNVGGHVRLITKESRPRDPFTKKLLEDGACVPFLNPYTVQADLTVKPSTSKGYLQAVDNEGNPLCLRCQQPTCQTKQACKANSWDSRFCSLKCQEEFWIRSNNSYLRAKVFETEHGVCQLCNVNAQELFLRLRDAPKSQRANLLYATWTSKLPLEQLNEMIRNPGEGHFWQVDHIKPVYGGGGQCSLDNLQTLCTVCHKERTARQAKERSQVRRQSLASKHGSDITRFLVKK
The molecule B2 came in with an ATP hydrolysis rate of 18.83 ± 1.94 µmol/L/min and a k of 125.55 ± 12.95 min⁻¹.

B3: R1009A: ZRANB3 basic residues HNH mutant (protein, UniProt Q5FWF4 1-1079, looked up, variant R1009A)
DNA annealing helicase and …: MPRVHNIKKSLTPHISCVTNESDNLLDFLPDRLRAKLLPFQKDGIIFALKRNGRCMVADEMGLGKTIQAIGITYFYKEEWPLLIVVPSSLRYPWTEEIEKWIPELSPEEINVIQNKTDVRRMSTSKVTVLGYGLLTADAKTLIDALNNQNFKVVIVDESHYMKSRNATRSRILLPIVQKARRAILLTGTPALGRPEELFMQIEALFPQKFGRWTDYAKRYCNAHIRYFGKRPQWDCRGASNLNELHQLLSDIMIRRLKTEVLTQLPPKVRQRIPFDLPSAAAKELNTSFEEWEKIMRTPNSGAMETVMGLITRMFKQTAIAKAGAVKDYIKMMLQNDSLKFLVFAHHLSMLQACTEAVIENKTRYIRIDGSVSSSERIHLVNQFQKDPDTRVAILSIQAAGQGLTFTAASHVVFAELYWDPGHIKQAEDRAHRIGQCSSVNIHYLIANGTLDTLMWGMLNRKAQVTGSTLNGRKEKIQAEEGDKEKWDFLQFAEAWTPNDSSEELRKEALFTHFEKEKQHDIRSFFVPQPKKRQLMTSCDESKRFREENTVVSSDPTKTAARDIIDYESDVEPETKRLKLAASEDHCSPSEETPSQSKQIRTPLVESVQEAKAQLTTPAFPVEGWQCSLCTYINNSELPYCEMCETPQGSAVMQIDSLNHIQDKNEKDDSQKDTSKKVQTISDCEKQALAQSEPGQLADSKEETPKIEKEDGLTSQPGNEQWKSSDTLPVYDTLMFCASRNTDRIHIYTKDGKQMSCNFIPLDIKLDLWEDLPASFQLKQYRSLILRFVREWSSLTAMKQRIIRKSGQLFCSPILALEEITKQQTKQNCTKRYITKEDVAVASMDKVKNVGGHVRLITKESRPRDPFTKKLLEDGACVPFLNPYTVQADLTVKPSTSKGYLQAVDNEGNPLCLRCQQPTCQTKQACKANSWDSRFCSLKCQEEFWIRSNNSYLRAKVFETEHGVCQLCNVNAQELFLRLRDAPKSQRKNLLYATWTSKLPLEQLNEMIANPGEGHFWQVDHIKPVYGGGGQCSLDNLQTLCTVCHKERTARQAKERSQVRRQSLASKHGSDITRFLVKK
In turn, B3 registered an ATP hydrolysis rate of 7.49 ± 2.57 µmol/L/min and a k of 49.94 ± 17.14 min⁻¹.

B4: K998A: ZRANB3 basic residues HNH mutant (protein, UniProt Q5FWF4 1-1079, looked up, variant K998A)
DNA annealing helicase and …: MPRVHNIKKSLTPHISCVTNESDNLLDFLPDRLRAKLLPFQKDGIIFALKRNGRCMVADEMGLGKTIQAIGITYFYKEEWPLLIVVPSSLRYPWTEEIEKWIPELSPEEINVIQNKTDVRRMSTSKVTVLGYGLLTADAKTLIDALNNQNFKVVIVDESHYMKSRNATRSRILLPIVQKARRAILLTGTPALGRPEELFMQIEALFPQKFGRWTDYAKRYCNAHIRYFGKRPQWDCRGASNLNELHQLLSDIMIRRLKTEVLTQLPPKVRQRIPFDLPSAAAKELNTSFEEWEKIMRTPNSGAMETVMGLITRMFKQTAIAKAGAVKDYIKMMLQNDSLKFLVFAHHLSMLQACTEAVIENKTRYIRIDGSVSSSERIHLVNQFQKDPDTRVAILSIQAAGQGLTFTAASHVVFAELYWDPGHIKQAEDRAHRIGQCSSVNIHYLIANGTLDTLMWGMLNRKAQVTGSTLNGRKEKIQAEEGDKEKWDFLQFAEAWTPNDSSEELRKEALFTHFEKEKQHDIRSFFVPQPKKRQLMTSCDESKRFREENTVVSSDPTKTAARDIIDYESDVEPETKRLKLAASEDHCSPSEETPSQSKQIRTPLVESVQEAKAQLTTPAFPVEGWQCSLCTYINNSELPYCEMCETPQGSAVMQIDSLNHIQDKNEKDDSQKDTSKKVQTISDCEKQALAQSEPGQLADSKEETPKIEKEDGLTSQPGNEQWKSSDTLPVYDTLMFCASRNTDRIHIYTKDGKQMSCNFIPLDIKLDLWEDLPASFQLKQYRSLILRFVREWSSLTAMKQRIIRKSGQLFCSPILALEEITKQQTKQNCTKRYITKEDVAVASMDKVKNVGGHVRLITKESRPRDPFTKKLLEDGACVPFLNPYTVQADLTVKPSTSKGYLQAVDNEGNPLCLRCQQPTCQTKQACKANSWDSRFCSLKCQEEFWIRSNNSYLRAKVFETEHGVCQLCNVNAQELFLRLRDAPKSQRKNLLYATWTSALPLEQLNEMIRNPGEGHFWQVDHIKPVYGGGGQCSLDNLQTLCTVCHKERTARQAKERSQVRRQSLASKHGSDITRFLVKK
With B4, the ATP hydrolysis rate was 15.12 ± 0.48 µmol/L/min and the k turned out to be 100.85 ± 3.22 min⁻¹.

B5: R987A: ZRANB3 basic residues HNH mutant (protein, UniProt Q5FWF4 1-1079, looked up, variant R987A)
DNA annealing helicase and …: MPRVHNIKKSLTPHISCVTNESDNLLDFLPDRLRAKLLPFQKDGIIFALKRNGRCMVADEMGLGKTIQAIGITYFYKEEWPLLIVVPSSLRYPWTEEIEKWIPELSPEEINVIQNKTDVRRMSTSKVTVLGYGLLTADAKTLIDALNNQNFKVVIVDESHYMKSRNATRSRILLPIVQKARRAILLTGTPALGRPEELFMQIEALFPQKFGRWTDYAKRYCNAHIRYFGKRPQWDCRGASNLNELHQLLSDIMIRRLKTEVLTQLPPKVRQRIPFDLPSAAAKELNTSFEEWEKIMRTPNSGAMETVMGLITRMFKQTAIAKAGAVKDYIKMMLQNDSLKFLVFAHHLSMLQACTEAVIENKTRYIRIDGSVSSSERIHLVNQFQKDPDTRVAILSIQAAGQGLTFTAASHVVFAELYWDPGHIKQAEDRAHRIGQCSSVNIHYLIANGTLDTLMWGMLNRKAQVTGSTLNGRKEKIQAEEGDKEKWDFLQFAEAWTPNDSSEELRKEALFTHFEKEKQHDIRSFFVPQPKKRQLMTSCDESKRFREENTVVSSDPTKTAARDIIDYESDVEPETKRLKLAASEDHCSPSEETPSQSKQIRTPLVESVQEAKAQLTTPAFPVEGWQCSLCTYINNSELPYCEMCETPQGSAVMQIDSLNHIQDKNEKDDSQKDTSKKVQTISDCEKQALAQSEPGQLADSKEETPKIEKEDGLTSQPGNEQWKSSDTLPVYDTLMFCASRNTDRIHIYTKDGKQMSCNFIPLDIKLDLWEDLPASFQLKQYRSLILRFVREWSSLTAMKQRIIRKSGQLFCSPILALEEITKQQTKQNCTKRYITKEDVAVASMDKVKNVGGHVRLITKESRPRDPFTKKLLEDGACVPFLNPYTVQADLTVKPSTSKGYLQAVDNEGNPLCLRCQQPTCQTKQACKANSWDSRFCSLKCQEEFWIRSNNSYLRAKVFETEHGVCQLCNVNAQELFLRLRDAPKSQAKNLLYATWTSKLPLEQLNEMIRNPGEGHFWQVDHIKPVYGGGGQCSLDNLQTLCTVCHKERTARQAKERSQVRRQSLASKHGSDITRFLVKK
The molecule B5 came in with an ATP hydrolysis rate of 6.34 ± 0.40 µmol/L/min and a k of 42.31 ± 2.70 min⁻¹.
